B1: Atacicept (TACI (30–110)‐Fc) (Fc fusion, human, UniProt O14836 30-110, looked up)
chain: AMRSCPEEQYWDPLLGTCMSCKTICNHQSQRTCAAFCRSLSCRKEQGKFYDHLLRDCISCASICGQHPKQCAYFCENKLRS
notes: also called TACI‐Fc; dimeric atacicept; source: provided by Merck (Darmstadt, Germany); also in sera of human subjects after 150 mg subcutaneously

Legend:
[1] = target: B1; experiment: ELISA; plates coated with atacicept at 1 μg/ml in PBS, blocked, incubated with the indicated concentrations of Flag‐APRIL; revealed with anti‐Flag reagents; conditions: both partners purified
[2] = target: T1, Flag‐mBAFF (mouse, UniProt Q9WU72 127-309); experiment: AlphaScreen or HTRF; AlphaLISA of atacicept diluted in mouse plasma with a matched pair of anti‐TACI antibodies (biotinylated ATA2, ATA3 acceptor beads), with or without recombinant mouse BAFF, with or without acid dissociation; conversely AlphaLISA of mouse BAFF in Baff−/− serum with 0, 100 or 2000 ng/ml atacicept; conditions: both partners purified
T1 construct: linker after the Flag tag; mouse BAFF, residues 127-309; that it is Flag‐mBAFF (ps657) is surmised; Encoded with an HA signal before the Flag tag; also called recombinant mouse BAFF; mouse BAFF
T1 sequence (Q9WU72 other isoform, or with tags, fused parts or gaps): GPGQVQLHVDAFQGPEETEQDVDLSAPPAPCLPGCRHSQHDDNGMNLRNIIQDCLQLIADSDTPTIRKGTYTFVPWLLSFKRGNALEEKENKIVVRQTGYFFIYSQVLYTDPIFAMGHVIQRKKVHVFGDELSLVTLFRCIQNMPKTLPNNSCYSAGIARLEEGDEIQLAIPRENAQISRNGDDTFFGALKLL

| Binder | binding result [1] | binding result [2] |
| --- | --- | --- |
| Flag‐ACRP‐hAPRIL (ligand, linker after the Flag tag; human ACRP30 (adiponectin), residues 16-108; linker; human APRIL, residues 105-250, starting at alanine 105 just after the furin cleavage site; also called Flag‐APRIL; ps1088; source: HEK293 cells, purified on anti‐Flag agarose) not shown | binds |  |
| B1 |  | binds |
